For the test, the target named is T1, Ig-V domain of human SIRPα V1 (crystallography construct) (human, UniProt P78324-1).
T1 construct: Signal regulatory protein α, human, allele v1, IgV domain as crystallised; also called IgV domain of SIRPα v1
Description: crystal structure; Fab-SIRPα V1 complex at 11.3 mg/mL in 10 mM Tris pH 7.4, 50 mM NaCl; sitting drop, 0.1 M sodium acetate pH 4.0, 0.2 M ammonium sulfate, 18% PEG 4000; 2.27 Angstroms. As to conditions: both partners purified.

T1 sequence (P78324 33-147): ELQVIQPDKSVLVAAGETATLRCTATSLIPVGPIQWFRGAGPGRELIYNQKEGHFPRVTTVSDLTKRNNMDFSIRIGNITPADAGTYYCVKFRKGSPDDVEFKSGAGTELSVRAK

B1: hAB21 anti-SIRPα Fab (Fab, V domains shown)
VH: DVQLVESGGGVVRPGESLRLSCEASGFTFSSNAMSWVRQAPGKGLEWVAGISSGSDTYYGDSVKGRLTISRDNSKNILYLQMNSLTAEDTAVYYCARETWNHLFDYWGQGTLVTVSS
VL: ELTQPPSVSVSPGQTARITCSGGSYSSYYYAWYQQKPGQAPVTLIYSDDKRPSNIPERFSGSSSGTTVTLTITGVQAEDEADYYCGGYDQSSYTNPFGGGTKLTVL
notes: Fab heavy chain; Fab light chain (humanized lambda); also called hAB21 Fab; Fab version of the antibody
As to B1, the binding result is listed as “binds”.

Values taken from article PMC7706287, “Targeting the myeloid checkpoint receptor SIRPα potentiates innate and adaptive immune responses to promote anti-tumor activity” (Journal of Hematology & Oncology, 2020).
